Reference: the DeepSol protein solubility set

Assay: soluble on expression in E. coli; label from the status in PepcDB or PDB records

Sequence | soluble on expression in E. coli
GPGSMLRAACCVLSGFPASVSRLFFLSWISLVDTALSFPPPRQTEIAPTRVWAGEGGGGGITALQAVTCPSHSTTCAACAGAGQHPPPPCQPPCRCVRVRVCVVHALLLPPPPSLAILLSCAQTTSTSLPPCFRRQSRARPPPHTHTHIHKHRASCAHHLSLPLLPHMSTAADRQAFLRLMGLTDADVTDPDHQPCAMLHSQTSSSHNVTDKVHRGVKYNSPTASSVAGLSHSASLGGDAIQFSLMNTTNTLRDTSPIVASGPSSSSSRPLFSAPRSVHWEEESIATTSHSSQLPQRAGASGCTAAAISEELKDVGNRSFEAGAFREAVQHYTAAIDALAASTTHSSAEVLLLSALYSNRSAAYLQAAHQMPSVEDAYARALCDADRTVSLRTSWFKGYARQGDAYFKLKRYGAAAEAYEMALQLDPRNKTLMNALSESRQRARHAAREELELRRTMRSTTSTTSSLASSMTGQAGSSTWSEGDPRGGAAASQQAQTLSDVYDGGRRRSGQAQQLWAALKHEVEATVHEVTGDAYRLQQLERFRARCSKGATPTARQAAERKTYVKGVTALASGAPASEPMREASVSGSRFSTATRPDVDVSTAAAAAAAERRHVSSVSPFAATALSSEPHLPPRRRSSASAAFDGPVKNARDVPYEFSSAAASAYQQRLLEEFRKRKATKQ | not soluble
ESYWRSRMIDAVTSDEDKVAPVYKLEEICDLLRSSHVSIVKEFSEFILKRLDNKSPIVKQKALRLIKYAVGKSGSEFRREMQRNSVAVRNLFHYKGHPDPLKGDALNKAVRETAHETISAIFSEENG | soluble
AHHHHHHGSLHLKEKLKGTTTVGLVCKEGVVLAADTRASLGNIIYAKNVTKIHKIDEHLAIAGAGDVGDILNLVRLLKAEANLYKSTVGKEMSVKALATLLANILNGSKYFPYLGWFLVGGYDEKPRLFSVDMVGGITEDNYAAAGSGMEFAYSILDSEYREEMSVNDGIKLAVKAINVAIKRDVFTGDGLLVVTITKDGYKEYRGAELEKMLK | not soluble
GMDDLSEFVDQVPLLDHHCHFLIDGKVPNRDDRLAQVSTEADKDYPLADTKNRLAYHGFLALAKEFALDANNPLAAMNDPGYATYNHRIFGHFHFKELLIDTGFVPDDPILDLDQTAELVGIPVKAIYRLETHAEDFMLEHDNFAAWWQAFSNDVKQAKAHGFVGFKSIAAYRVGLHLEPVNVIEAAAGFDTWKHSGEKRLTSKPLIDYMLYHVAPFIIAQDMPLQFHVGYGDADTDMYLGNPLLMRDYLKAFTKKGLKVVLLHCYPYHREAGYLASVFPNLYFDISLLDNLGPSGASRVFNEAVELAPYTRILFASDASTYPEMYGLAARQFKQALVAHFNQLPFVDLAQKKAWINAICWQTSAKLYHQERELRV | soluble
MESSSTASQSGSRREATRQKLYEAAVTLIAEQGFSATTVDEIAERAGVAKGTVYYNFASKSVLFEELLRHGVGLLTASLRQAAERTAREGRGRVDALDAMIRAGLVFIDRYPAFTQLYVAELWRTNRAWQSTLLVVRQEAVAVVEGVLREGVASGEFSEDIDVPLTAAALVGMVLVAALDWKAFQPERSLDDVHAALSRLLQGRVSGRG | not soluble
MSLSLMLTVETRQAVNPDYAKTLDTEGLRRHFLANDMFRSGEIRLIYTHYDRFVMGGAVPNGAPLTLDKVEETKTPSFLDRREMGIVNIGETGTVSAGDETYTLNRGDVLYLGAGSRAVTFDGAGRFYITSCPAHRSLPAKLVSLADSKEVKLGATETSNKRTINQFIHPLVMESCQLVLGYTMLEDGSVWNTIPSHIHDRRMEAYLYFGMDEKSRVLHLMGEPQETRHLFISNEEGAISPPWSIHSGAGIGSYTFIWAMAGDNVDYTDMDFIQPGDLKEGHHHHHH | soluble
SESQDIKALQKELEQFAKLLKQKRITLGYTQADVGLTLGVLFGKVFSQTTICRFEALQLSFKNMCKLRPLLQKWVEEADNNENLQEICKAETLVQARKRKRTSIENRVRGNLENLFLQCPKPTLQQISHIAQQLGLEKDVVRVWFCNRRQKGKRSSSDYAQ | soluble
MGSDKIHHHHHHMEKEIKNIIEMRHIVKDFNGFKANNDINLTLRKGEILALLGENGAGKSTLMSILSGLLEPTSGEIYVRGEKVNISGPNVATSLGIGMVHQHFMLAQAFTVLENIILGHETTKGLALDFKTAREKILALSKQYGLAIDPDAKISDITVAQQQRVEILKVLYRGADILIFDEPTAVLTPQEITEFIKIMKNLAKEGKSIILITHKLKEIKESADRVTVIRAGKSIQTVSVADANDEQLAEMMVGHHVNFKLDKAPLNLGKNILEVKDLHVNEDRGTDAVKGLSFNIRGGEILGLAGIDGNGQDELVEAITGLRHVEGGQVVINGQDLTNKPVRQITEAGVGHIPADRQKYGLILQLPLSENIASQTYYKEPYSKHGIMNEQTIREHARELIKKFDVRTTSEQLPASDLSGGNQQKAIIARELDRDADLIIAFQPTRGLDVGAIEYIHSQLLKQRDAGKAVLLVSYELDEILQLSDRIVVLHDGAESGEVKPDQTSETELGLLMTGKNTKKEAAAND | not soluble
MEQKTENKWPLQFEVIEEIKQVGRWSAPSWRLGDIHLYEKVNETQDNVSLFERDLEIFRDERTDYRFNLSSQDPKLFFAFENDNDQLTPVMITASQSMIGQYMDGDYLVLSTAMPLPMQAWLEAYIGKHGELLEVRKKKRKGAGRASEQLPK | not soluble
MALKDRFDKIISYFDTDDVSENEVHEVQERTSVQRDSRAATAQEASQRSHMTNSAEEEMIGSRPRTYTYDPNRQERQRVQRDNAYQQATPRVQNKDSVRQQREQVTIALKYPRKYEDAQEIVDLLIVNECVLIDFQYMLDAQARRCLDYIDGASRVLYGSLQKVGSSMFLLTPANVMVDIEEMNIPKTGQETSFDFDMKRRLEHHHHHH | not soluble
MSGNSGASPQDMVKKLVYLSCTLNQKCGQRTGPHREPEPFLGFSVRDRSGLEGAIASVFQSSFDVLLYPTIYDQAAALLFKLANGHYFQDGNKRTAFHLCLAYLRANNVHVSPPRSDDVITLLQTTVSRSGSQENGIAFVRQKLLDWTVD | not soluble
MGSDKIHHHHHHENLYFQGMRISANFDGGNIETISLANPDDIQLAIRPDAGGEFYQWFNFRFEATIGKTYTLNILNAGGASYLKGWEDYQAVASYDRQTWFRLPTEYKDGKLSISVELDCEAIQIAYFTPYSYERHLDLISAVQLHPLVSTEHLGLTLDGRDMTLVKVGDDDPSKKSIWITARQHPGETMAEWLVEGLLNQLLDNDCPTSKALLDKANFYIVPNMNPDGSVRGHLRTNAVGANLNREWQTPSLERSPEVYYVVNKMHETGVDLFYDVHGDEGLPYVFLAGCEGIPNYSDKLASLQQDFVAALSLASADFQTEFGYDKDEPGKANLTVACNWVANTFKCLSNTLEMPFKDNANLADPFQGWSPERSVYFGEASLIAMRAVIDKIGQ | soluble
MKPTTRSASKRANAESSGVNQPEKKSRIPETEIVEDPLEIEVPPASADGTDNKSFSENEYDDDHSSSSDEESDDEYVVETHKSSMVDAAESSEGERPDERIVRELEQKIARGLKNDRILKKKKKALDGEVSDTEDVVCEYEPQAMPKQRRRRLYRRKMTRPQGVPKRRRIKRPDLELADDYTCDTFAEQGLTLKSLTSDIKQDDPEVDWKAMRRMGIGIRSTKRDEINSDEDEADIISHSFSFYQTRNSKEQVAQAVELNMNPFSEKIASYNAPKSVHGYSRSSIQNQHSGFIDKNDIKYPDELLWQEPFTHLVFFQSTFNAHESSIKFLNNVANSKKQERDSKLMKEIRERIKQKSLGHVDVPIDYTNVESTSEQPSTIDQYSLPDLTSQCDEGTIKEEEDFDYLMVDAEF | not soluble
TDPDCDRIGVLVKNKSGEYKVLTGNQTGVLLTHYIISSLKDTGKLPANGAVIKTIVTSEMTRKITEDYDMKLIDVLTGFKYIGEKIKEFEETNSNTYLFGFEESYGCLAGTFVRDKDAVVAATLVCEMALYYKNKGLSLDDALNELYEKYGF | not soluble
MSLANNKVHFIAIGGAVMHNLALALHHKGYLVSGSDDEIFEPSRTRLAAYNLLPAEMGWFPEKITTDLDAVILGMHARNDNPELQKARELGIKIYSFPEYIYEQSKDKQRIVIAGSHGKTTITAMIMHVLKTHKRKFDYLVGAKLDGFETMVQITDDAPIIIIEGDEYLTSPLDLTPKFLHYHHHIGLISGVAWDHINVYPTFEEYVKQFDAFADSTPKGGILIYSESDDLATLVADKPRPDVQAIGYSAPKHEIVNGITYLLTDKGKIELEVFGKHNLKNINAAKNVCLKIGITEAMFYDAIKTFKGAANRLEILGRGKHNVVFKDFAHAPSKLKATSKAVKKQFSDRKLIAVLELHTFSSLNKEFLSQYKDTYKAPDEPIVYFNPETVKHKRLEEITEADIIEAFDNPKLNVFTDSKKLEEFLFSHDWKHSNLLLMSSGNFGGIDLKKLTSHVLNQHAEGHHHHHH | soluble
KDETVGVGVLSEPHARLLEIAKEEVKKQHIELRIVEFTNYVALNEAVMRGDILMNFFQHVPHMQQFNQEHNGDLVSVGNVHVEPLALYSRTYRHVSDFPAGAVIAIPNDSSNEARALRLLEAAGFIRMRAGSGLFATVEDVQQNVRNVVLQEVESALLPRVFDQVDGAVINGNYAIMAGLSARRDGLAVEPDASAYANVLVVKRGNEADARVQAVLRALCGGRVRTYLKERYKGGEVAPAL | soluble
MLRGGVNDCKIKWEFLIGNSIDSSPILAKNGTIYLGSSNKNLYAINTDGSVKWFFKSGEIIECRPSIGKDGTIYFGSDKVYAINPDGTEKWRFDTKKAIVSDFTIFEDILYVTSMDGHLYAINPDGTEKWRFKTKKAIYATPIVSEDGTIYVGSNDNYLYAINPDGTEKWRFKTNDAITSAASIGKDGTIYFGSDKVYAINPDGTEKWNFYAGYWTVTRPAISEDGTIYVTSLDGHLYAINPDGTEKWRFKTGKRIESSPVIGNTDTIYFGSYDGHLYAINPDGTEKWNFETGSWIIATPVIDENGTIYFGTRNGKFYALFNLEHHHHHH | soluble
MNSDVIKGKWKQLTGKIKERWGDLTDDDLQAADGHAEYLVGKLQERYGWSKERAEQEVRDFSDRL | soluble
AIAGRKSNRAKEKKQRRLEERAAMDAVCAKVDAANKLEDPLSAMPVFKKYDRNGLNLQIECKRVTALSPDTVEWAYELTRANMQTLYEQSEWGWKEREKREEMKDERAWYLLARDADSTPLAFSHFRFDVECGDEVLYCYEVQLESKVRRKGLGKFLIQILQLIANSTQMKKVMLTVFKHNHGAYQFFREALQFEIDETSPSMSGCCGEDCSYEILSRRTKYGEVSGHAHGGHCGGCCH | soluble
MTNDVEMKSETEELPPFPTVHILQVVKDAQQQHGLRHGDYARYRKYCAAKLERMRKALKFTNSHNCQKKRKAKFVKKWLSVESVQNVQFLNFGIFESERRYAEAMIDKITLEDNPEKSRKKFSMINSLRKAVLHATNLEKIVQESERFDAPTKLEAQAYAAWMRGMCSFESRNWQKASESLKLAKTVYEKLAEATNNTTLSSIFKGRCREIQPQLRLCEFNIAESPGAVGTMTELMELRMQMGEGGDSSVDKLISEMRASATSAEVVTIEWGGAKSTVDDEKAKQVVQEWKQTEVELAQCQTPKEKMALFEKATADTRDAIDRISDIIRRKSSENADTTVLQSIKAYLEFLKMNGTASRYLAIIDNTKSEKKSKPQDLLRLYDSVIEIYKEVAEIPGADHDKNLIQAFEVKVEYYRAFRCFYMASSYSALHKYSEAAALFDRTVSRVQDAEGKLKKLKSSSFITNETQSSLNELRSEVESAKVTVRAARLASAAGDVKTDSELAKIIDKRPLLETVNEWRQWDVRNSLKDKKTIPVASLPPAFIPMPNKPIFFDLANFHLTMPNVDDRLEKLQKDRDATPKKAAKGSSAAAASSKTSNQEEEEQQGLTGMLSGWKKSFWGNK | not soluble
